Data as given in patent US20250269025A1 (AVENCELL THERAPEUTICS, published 2025).
No end group written: not given here.

Tests used:
[1] = target: T1, CD123 on CD123 positive AML cells (Oci-AML3, Molm-13, MV4-11, primary AML cells) (human, UniProt P26951 19-378); experiment: cellular binding assay per table caption, Molm-13 cells
T1 construct: whole, on cells; Endogenous CD123 on human AML cell lines; also called target antigen CD123

[2] = target: T2, La epitope 5B9 (SEQ ID No. 28) fused to human Fc domain (human, also: fused to human Fc domain, order, isotype, linker not given here); experiment: SPR, Biacore X100, La epitope 5B9-human Fc on CM5 chip; KD 5B9 (second number of the cell)
T2 construct: Coupled to a CM5 sensor chip; not shown: human Fc domain
T2 chain: KPLPEVTDEY
Procedure: Furthermore, binding of different variants of the targeting module according to the invention was analyzed using the La epitope 5B9 (SEQ ID No. 28) fused to human Fc domain which was coupled to a CM5 sensor chip on a Biacore X100 device (FIG. 3). The targeting modules were purified monomers. The targeting modules were concentrated between 2.47 to 200 nM and measured in technical duplicates. For data fitting and KD calculation a two-state-reaction binding model was applied.

[3] = target: T1, CD123 on CD123 positive AML cells …; experiment: flow cytometry on Oci-AML3 cells, anti-His-PE detection. Half-maximal binding from a four-parameter fit of gMFI. Unit taken from the concentration axis [M]
Procedure: Cellular binding of CD123-binding targeting modules (TM) was tested on CD123 positive target cell lines Oci-AML3 and Molm-13: A) SEQ ID No. 5 to Oci-AML3, B) SEQ ID No. 9 to Oci-AML3, C) SEQ ID No. 4 to Molm-13 and D) SEQ ID No. 6 to Molm-13. The affinity of TMs was analyzed by flow cytometry. The TMs were titrated on an AML cell lines and then detected by a mouse anti-His-tag antibody conjugated to phycoerythrin.
Different concentrations of R-TM123 were incubated with cells, washed and quantified. A dose-response curve was obtained when the geometric mean fluorescence (MFI) was plotted against the TM concentration.

[4] = target: T1, CD123 on CD123 positive AML cells …; experiment: cell-based or functional assay
[5] = target: T3, human CD123-Fc (human, UniProt P26951 19-305, limits assumed); experiment: SPR, Biacore X100, human CD123-Fc on CM5 chip, 1:1 model; KD CD123 (first number of the cell)
T3 construct: Coupled to a CM5 sensor chip; also called soluble recombinant CD123; not shown: Fc part
T3 sequence (looked up): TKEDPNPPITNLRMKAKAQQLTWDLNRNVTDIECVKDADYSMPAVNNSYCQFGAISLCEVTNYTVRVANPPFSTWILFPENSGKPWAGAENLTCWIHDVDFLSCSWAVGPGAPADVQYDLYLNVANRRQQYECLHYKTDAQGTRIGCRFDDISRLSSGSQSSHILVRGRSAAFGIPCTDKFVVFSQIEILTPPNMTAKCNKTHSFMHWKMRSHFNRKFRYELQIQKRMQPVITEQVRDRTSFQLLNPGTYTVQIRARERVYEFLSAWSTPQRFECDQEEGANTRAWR
Procedure: Binding of different variants of the targeting module according to the invention was analyzed by SPR measurements using human CD123-Fc coupled to a CM5 sensor chip on a Biacore X100 device (FIG. 2). Targeting modules were purified monomer except for the targeting module according to SEQ ID No. 8. […] For data fitting and KD calculation a 1:1 binding model was applied.

[6] = target: T1, CD123 on CD123 positive AML cells …; experiment: cell-based or functional assay; remark: listed apart in the source
[7] = target: T1, CD123 on CD123 positive AML cells …; experiment: cellular binding assay per table caption, Oci-AML3 cells
[8] = target: T1, CD123 on CD123 positive AML cells …; experiment: cell-based or functional assay; remark: listed apart in the source
[9] = target: T1, CD123 on CD123 positive AML cells …; experiment: cell-based or functional assay; remark: listed apart in the source

B1: targeting module according to SEQ ID No. 5 (bispecific antibody)
chain: EVQLQQSGPELVKPGASVKMSCKASGYTFTDYYMKWVKQSHGKSLEWIGDIIPSNGATFYNQKFKGKATLTVDRSSSTAYMHLNSLTSEDSAVYYCTRSHLLRASWFAYWGQGTLVTVSAASGGGGSGGGGSGGGGSDFVMTQSPSSLTVTAGEKVTMSCKSSQSLLNSGNQKNYLTWYLQKPGQPPKLLIYWASTRESGVPDRFTGSGSGTDFTLTISSVQAEDLAVYYCQNDYSYPYTFGGGTKLEIKAAARGDIVMTQSPDSLAVSLGERATINCKSSQSLLNSRTPKNYLAWYQQKPGQPPKLLIYWASTRKSGVPDRFSGSGSGTDFTLTISSLQAEDVAVYYCKQSYNLLTFGGGTKVEIKGGGGSGGGGSGASAAGGGGSGGGGSQVQLVQSGAEVKKPGASVKVSCKASGYTFTHYYIYWVRQAPGQGLEWMGGVNPSNGGTHFNEKFKSRVTMTRDTSISTAYMELSRLRSDDTAVYYCARSEYDYGLGFAYWGQGTLVTVSSGGGGSHHHHHHHH
notes: also called R-TM123; muCD123 + 5B9-VL-VH
EC50 [1]: 1.2 pM | Kd [2]: 3400 pM | Kd [3]: 2920 pM | EC50 of R-TM123 for RevCAR-T mediated lysis of MOLM-13, Donor #1 [4]: 1.3 pM | EC50 of R-TM123 for RevCAR-T mediated lysis of MOLM-13, Donor #2 [4]: 2.2 pM | EC50 of R-TM123 for RevCAR-T mediated lysis of MOLM-13, Donor #3 [4]: 2.6 pM | EC50 of R-TM123 for RevCAR-T mediated lysis of MOLM-13, Donor #4 [4]: 1 pM | EC50 of R-TM123 for RevCAR-T mediated lysis of MOLM-13, Mean [4]: 1.8 pM | EC50 of R-TM123 for RevCAR-T mediated lysis of MV4-11, Donor #1 [4]: 2.8 pM | EC50 of R-TM123 for RevCAR-T mediated lysis of MV4-11, Donor #2 [4]: 4.2 pM | EC50 of R-TM123 for RevCAR-T mediated lysis of MV4-11, Donor #3 [4]: 3.8 pM | EC50 of R-TM123 for RevCAR-T mediated lysis of MV4-11, Donor #4 [4]: 3.3 pM | EC50 of R-TM123 for RevCAR-T mediated lysis of MV4-11, Mean [4]: 3.5 pM | EC50 of R-TM123 for RevCAR-T mediated lysis of OCI-AML3, Donor #1 [4]: 8.6 pM | EC50 of R-TM123 for RevCAR-T mediated lysis of OCI-AML3, Donor #2 [4]: 6.7 pM | EC50 of R-TM123 for RevCAR-T mediated lysis of OCI-AML3, Donor #3 [4]: 4.9 pM | EC50 of R-TM123 for RevCAR-T mediated lysis of OCI-AML3, Donor #4 [4]: 2.7 pM | EC50 of R-TM123 for RevCAR-T mediated lysis of OCI-AML3, Mean [4]: 5.7 pM | Kd [5]: 23 pM | EC50 of R-TM123 for CD25 expression on CD4+ RevCAR-T, co-culture with MOLM-13, Donor #1 [6]: 2.6 pM | EC50 of R-TM123 for CD25 expression on CD4+ RevCAR-T, co-culture with MOLM-13, Donor #2 [6]: 2.2 pM | EC50 of R-TM123 for CD25 expression on CD4+ RevCAR-T, co-culture with MOLM-13, Donor #3 [6]: 2.3 pM | EC50 of R-TM123 for CD25 expression on CD4+ RevCAR-T, co-culture with MOLM-13, Donor #4 [6]: 1.2 pM | EC50 of R-TM123 for CD25 expression on CD4+ RevCAR-T, co-culture with MOLM-13, Mean [6]: 2.1 pM | EC50 of R-TM123 for CD25 expression on CD4+ RevCAR-T, co-culture with MV4-11, Donor #1 [6]: 8 pM | EC50 of R-TM123 for CD25 expression on CD4+ RevCAR-T, co-culture with MV4-11, Donor #2 [6]: 6.5 pM | EC50 of R-TM123 for CD25 expression on CD4+ RevCAR-T, co-culture with MV4-11, Donor #3 [6]: 10.2 pM | EC50 of R-TM123 for CD25 expression on CD4+ RevCAR-T, co-culture with MV4-11, Donor #4 [6]: 8.9 pM | EC50 of R-TM123 for CD25 expression on CD4+ RevCAR-T, co-culture with MV4-11, Mean [6]: 8.4 pM | EC50 of R-TM123 for CD25 expression on CD4+ RevCAR-T, co-culture with OCI-AML3, Donor #1 [6]: 2.9 pM | EC50 of R-TM123 for CD25 expression on CD4+ RevCAR-T, co-culture with OCI-AML3, Donor #2 [6]: 3 pM | EC50 of R-TM123 for CD25 expression on CD4+ RevCAR-T, co-culture with OCI-AML3, Donor #3 [6]: 2.3 pM | EC50 of R-TM123 for CD25 expression on CD4+ RevCAR-T, co-culture with OCI-AML3, Donor #4 [6]: 2.4 pM | EC50 of R-TM123 for CD25 expression on CD4+ RevCAR-T, co-culture with OCI-AML3, Mean [6]: 2.6 pM | EC50 of R-TM123 for CD25 expression on CD8+ RevCAR-T, co-culture with MOLM-13, Donor #1 [6]: 5.2 pM | EC50 of R-TM123 for CD25 expression on CD8+ RevCAR-T, co-culture with MOLM-13, Donor #2 [6]: 4.3 pM | EC50 of R-TM123 for CD25 expression on CD8+ RevCAR-T, co-culture with MOLM-13, Donor #3 [6]: 6 pM | EC50 of R-TM123 for CD25 expression on CD8+ RevCAR-T, co-culture with MOLM-13, Donor #4 [6]: 2.1 pM | EC50 of R-TM123 for CD25 expression on CD8+ RevCAR-T, co-culture with MOLM-13, Mean [6]: 4.4 pM | EC50 of R-TM123 for CD25 expression on CD8+ RevCAR-T, co-culture with MV4-11, Donor #1 [6]: 6.7 pM | EC50 of R-TM123 for CD25 expression on CD8+ RevCAR-T, co-culture with MV4-11, Donor #2 [6]: 4.3 pM | EC50 of R-TM123 for CD25 expression on CD8+ RevCAR-T, co-culture with MV4-11, Donor #3 [6]: 7.2 pM | EC50 of R-TM123 for CD25 expression on CD8+ RevCAR-T, co-culture with MV4-11, Donor #4 [6]: 5.1 pM | EC50 of R-TM123 for CD25 expression on CD8+ RevCAR-T, co-culture with MV4-11, Mean [6]: 5.8 pM | EC50 of R-TM123 for CD25 expression on CD8+ RevCAR-T, co-culture with OCI-AML3, Donor #1 [6]: 8.7 pM | EC50 of R-TM123 for CD25 expression on CD8+ RevCAR-T, co-culture with OCI-AML3, Donor #2 [6]: 15.7 pM | EC50 of R-TM123 for CD25 expression on CD8+ RevCAR-T, co-culture with OCI-AML3, Donor #3 [6]: 14.6 pM | EC50 of R-TM123 for CD25 expression on CD8+ RevCAR-T, co-culture with OCI-AML3, Donor #4 [6]: 4.8 pM | EC50 of R-TM123 for CD25 expression on CD8+ RevCAR-T, co-culture with OCI-AML3, Mean [6]: 11 pM | EC50 [7]: 3 pM | EC50 of R-TM123 for GM-CSF release by RevCAR-T, co-culture with MOLM-13 [8]: 37.7 pM | EC50 of R-TM123 for Granzyme B release by RevCAR-T, co-culture with MOLM-13 [8]: 4.4 pM | EC50 of R-TM123 for IFN-γ release by RevCAR-T, co-culture with MOLM-13 [8]: 19.3 pM | EC50 of R-TM123 for IL-2 release by RevCAR-T, co-culture with MOLM-13 [8]: 63.9 pM | EC50 of R-TM123 for IL-4 release by RevCAR-T, co-culture with MOLM-13 [8]: 54.2 pM | EC50 of R-TM123 for Perforin release by RevCAR-T, co-culture with MOLM-13 [8]: 3.7 pM | EC50 of R-TM123 for TNF-α release by RevCAR-T, co-culture with MOLM-13 [8]: 53.9 pM | EC50 of R-TM123 for lysis of primary AML cells AML 1 by RevCAR-T, Donor #2 [9]: 3.4 pM | EC50 of R-TM123 for lysis of primary AML cells AML 1 by RevCAR-T, Donor #3 [9]: 2.9 pM | EC50 of R-TM123 for lysis of primary AML cells AML 1 by RevCAR-T, Donor #4 [9]: 1.8 pM | EC50 of R-TM123 for lysis of primary AML cells AML 1 by RevCAR-T, Mean [9]: 2.7 pM | EC50 of R-TM123 for lysis of primary AML cells AML 3 by RevCAR-T, Donor #2 [9]: 3 pM | EC50 of R-TM123 for lysis of primary AML cells AML 3 by RevCAR-T, Donor #3 [9]: 3.8 pM | EC50 of R-TM123 for lysis of primary AML cells AML 3 by RevCAR-T, Donor #4 [9]: 2.2 pM | EC50 of R-TM123 for lysis of primary AML cells AML 3 by RevCAR-T, Mean [9]: 3 pM | EC50 of R-TM123 for lysis of primary AML cells AML 4 by RevCAR-T, Donor #2 [9]: 1.7 pM | EC50 of R-TM123 for lysis of primary AML cells AML 4 by RevCAR-T, Donor #3 [9]: 3.1 pM | EC50 of R-TM123 for lysis of primary AML cells AML 4 by RevCAR-T, Donor #4 [9]: 1.8 pM | EC50 of R-TM123 for lysis of primary AML cells AML 4 by RevCAR-T, Mean [9]: 2.2 pM | EC50 of R-TM123 for lysis of primary AML cells AML 5 by RevCAR-T, Donor #2 [9]: 2.2 pM | EC50 of R-TM123 for lysis of primary AML cells AML 5 by RevCAR-T, Donor #3 [9]: 3.6 pM | EC50 of R-TM123 for lysis of primary AML cells AML 5 by RevCAR-T, Donor #4 [9]: 2.1 pM | EC50 of R-TM123 for lysis of primary AML cells AML 5 by RevCAR-T, Mean [9]: 2.6 pM
